Measured values published in patent US12637662B2, “Cells, islets, and organoids that evade immune detection and autoimmunity, methods of production and use thereof” (SALK INSTITUTE FOR BIOLOGICAL STUDIES, priority 2018, dated 2026).

Legend:
[1] = test system: ERRγ (ESRRG), mitochondrial and insulin gene expression; test: Quantitative RT-PCR gene expression in hiPSC-derived islet organoids/HILOs; format: cell-based, human; settings: hiPSC-derived islet organoids, MCS or HILOs
Protocol: hiPSCs were cultured in matrigel-coated plates. Single cell suspensions were prepared using Accutase, washed in PBS, and collected by centrifugation (1000-1300 rpm for 5 min). Cells were re-suspended with 3D Kelco Gel Stem TeSR™ Base Medium in the presence of the ROCK inhibitor (10 μM Y-27632, StemCell) for 5 to 7 days until spheroids reached 50-100 μm diameter. The medium was then replaced with 0.015% Kelco gel containing 0.3% methylcellulose and supplemented with 100 ng/ml human Activin A (R&D Systems), 3 μM CHIR99021 (Axon or Selleckchem) in differentiation medium (S1) for 1 day, and then 100 ng/ml human Activin in differentiation medium (S1) for another 2 days (Stage 1, Definitive Endoderm). Subsequently, the medium was replaced with differentiation medium (S2) with 50 ng/ml FGF7 (R&D Systems) for 2 days, differentiation medium (S3) with 50 ng/ml FGF7, 0.25 μM SANT-1 (Sigma), 1 μM Retinoic Acid (Sigma), 100 nM LDN193189, 10 μM Alk5 inhibitor II and 200 nM of the ß-Amyloid Precursor Protein modulator TPB for 3 days, then 50 ng/ml FGF7, 0.25 μM SANT-1 (Sigma), 1 μM Retinoic Acid (Sigma), 100 nM LDN193189, 10 μM Alk5 inhibitor II and 100 nM of the ß-Amyloid Precursor Protein modulator TPB for 2 days. Subsequently the medium was replaced with differentiation medium (S4) with 0.25 μM SANT-1, 50 nM retinoic acid, 100 nM LDN193189, 10 μM Alk5 inhibitor II, 1 μM T3 for 3 days. Subsequently, the medium was replaced with differentiation medium (S5) with 100 nM LDN193189, 100 nM […] inhibitor XX (GSiXX, Millipore), 10 μM Alk5 inhibitor IL, 1 μM T3 for 7 days. Subsequently, the medium was replaced with differentiation media (S5) with 10 μM Trolox (Calbiochem), 2 μM R428 (Selleckchem), 1 mM N-acetyl cysteine, 10 μM Alk5 inhibitor II, 1 μM T3 for an additional 7 to 20 days. […]
Total RNA was extracted using TRIzol reagent (Invitrogen) and RNeasy KIT (Qiagen). […] Real time quantitative RT-PCR (qPCR) was performed using SYBR Green (Bio-Rad).

[2] = test system: insulin-expressing cells of HILOs; test: Mitochondrial content (MitoTracker) and insulin-GFP by flow cytometry; format: cell-based, human
Text: FIGS. 8A-8H provide images, graphs, a schematic and a diagram showing results related to WNT4 mediated insulin-GFP expression and WNT4-driven metabolic maturation. FIG. 8A presents representative images of mitochondrial content, indicated by MitoTracker (red) staining, in PBS and WNT4 treated HILOs (scale bar, 100 μm). FIG. 8B presents graphs of flow cytometry quantification of insulin expression (GFP) and mitochondrial content in HILOs treated with recombinant human WNT4 (rhWNT4), WNT5A (rhWNT5A), or conditioned medium (CM) from control or WNT5A overexpressing fibroblasts (n=3). Error bars represent SEM. *p<0.05. FIG. 8C presents a gene ontology of transcriptional changes induced by WNT4 treatment (100 ng/ml WNT4 from day26 to day33) in HILOs. […] Error bars represent SEM. *p<0.05. FIG. 8E presents a Venn diagram showing overlap between WNT4-induced increases in chromatin accessibility in GFP^+ cells and increases in HILO gene expression (upper panel), and gene ontology pathways enriched in the intersection gene set. […] For FIGS. 8G and 8H, postnatal islets (day P11-14) from WT and β cell specific ERRγKO mice were cultured with or without rhWNT4 (100 ng/ml) for >5 days.

B1: WNT5a: recombinant human Wnt5a protein (protein, UniProt P41221 62-380, looked up)
Protein Wnt-5a: IIGAQPLCSQLAGLSQGQKKLCHLYQDHMQYIGEGAKTGIKECQYQFRHRRWNCSTVDNTSVFGRVMQIGSRETAFTYAVSAAGVVNAMSRACREGELSTCGCSRAARPKDLPRDWLWGGCGDNIDYGYRFAKEFVDARERERIHAKGSYESARILMNLHNNEAGRRTVYNLADVACKCHGVSGSCSLKTCWLQLADFRKVGDALKEKYDSAAAMRLNSRGKLVQVNSRFNSPTTQDLVYIDPSPDYCVRNESTGSLGTQGRLCNKTSEGMDGCELMCCGRGYDQFKTVQTERCHCKFHWCCYVKCKKCTEIVDQFVCK
expression of ERRγ (ESRRG) and mitochondrial genes [1]: induced | proportion of insulin expressing cells ([2]; GFP sorting, HILOs with and without WNT treatment): not affected | mitochondrial content / number ([2]; MitoTracker, HILOs / insulin-expressing cells): increased the mitochondrial content
